Changes are numbered by the printed parent chain.
T1: Human PTK7/CCK4 Protein, His Tag, Acro Biosystems PT7-H52H3 (human, UniProt Q13308 31-704)
T1 construct: bought protein; also called Human PTK7 Protein, His Tag, Acro Biosystems; not shown: His tag
T1 sequence: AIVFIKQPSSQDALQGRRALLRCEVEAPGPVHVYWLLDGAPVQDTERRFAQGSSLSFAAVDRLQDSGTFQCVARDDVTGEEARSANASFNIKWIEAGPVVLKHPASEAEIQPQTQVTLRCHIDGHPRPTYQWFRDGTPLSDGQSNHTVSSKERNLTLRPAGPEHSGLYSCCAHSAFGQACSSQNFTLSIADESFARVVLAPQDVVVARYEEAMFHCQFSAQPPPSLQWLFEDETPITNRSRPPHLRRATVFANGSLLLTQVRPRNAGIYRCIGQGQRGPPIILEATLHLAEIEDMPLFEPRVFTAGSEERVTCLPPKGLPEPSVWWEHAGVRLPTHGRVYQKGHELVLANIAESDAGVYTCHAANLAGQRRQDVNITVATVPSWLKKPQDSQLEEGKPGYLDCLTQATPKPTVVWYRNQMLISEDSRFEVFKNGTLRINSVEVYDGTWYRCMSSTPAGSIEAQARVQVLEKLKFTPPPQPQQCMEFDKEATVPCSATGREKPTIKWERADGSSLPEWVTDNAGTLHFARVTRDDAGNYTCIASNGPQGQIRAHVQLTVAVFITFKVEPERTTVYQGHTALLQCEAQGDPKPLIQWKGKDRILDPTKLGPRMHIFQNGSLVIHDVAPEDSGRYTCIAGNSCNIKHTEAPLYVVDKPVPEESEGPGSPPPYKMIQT

T2: Human PTK7 (human, UniProt Q13308 31-1070)
T2 sequence: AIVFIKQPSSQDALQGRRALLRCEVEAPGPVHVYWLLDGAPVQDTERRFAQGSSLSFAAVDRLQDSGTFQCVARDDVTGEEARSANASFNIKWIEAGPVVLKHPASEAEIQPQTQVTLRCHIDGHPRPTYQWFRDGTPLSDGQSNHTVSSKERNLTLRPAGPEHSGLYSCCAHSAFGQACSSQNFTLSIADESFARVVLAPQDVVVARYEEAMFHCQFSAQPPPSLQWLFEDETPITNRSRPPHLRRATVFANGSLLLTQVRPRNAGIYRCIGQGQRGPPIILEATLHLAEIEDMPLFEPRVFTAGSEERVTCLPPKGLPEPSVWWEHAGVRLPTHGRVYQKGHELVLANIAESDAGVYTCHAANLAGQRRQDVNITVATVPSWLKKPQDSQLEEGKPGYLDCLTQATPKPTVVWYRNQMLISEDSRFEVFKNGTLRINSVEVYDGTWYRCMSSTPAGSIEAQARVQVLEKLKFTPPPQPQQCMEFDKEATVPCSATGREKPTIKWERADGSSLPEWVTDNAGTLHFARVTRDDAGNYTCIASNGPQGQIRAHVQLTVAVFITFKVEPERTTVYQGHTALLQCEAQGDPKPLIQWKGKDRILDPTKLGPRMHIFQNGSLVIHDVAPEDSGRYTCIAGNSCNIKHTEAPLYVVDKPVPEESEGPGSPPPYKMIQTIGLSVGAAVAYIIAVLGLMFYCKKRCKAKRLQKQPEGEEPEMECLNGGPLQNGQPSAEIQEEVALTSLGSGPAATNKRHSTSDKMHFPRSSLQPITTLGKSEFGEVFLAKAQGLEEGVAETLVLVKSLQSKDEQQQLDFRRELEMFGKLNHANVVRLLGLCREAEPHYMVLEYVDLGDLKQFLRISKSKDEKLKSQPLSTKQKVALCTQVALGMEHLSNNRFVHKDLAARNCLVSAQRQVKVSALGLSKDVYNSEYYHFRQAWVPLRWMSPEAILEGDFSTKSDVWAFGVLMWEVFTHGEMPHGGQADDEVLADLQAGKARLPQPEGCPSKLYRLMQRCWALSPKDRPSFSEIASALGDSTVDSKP

B1: MYT11393 (antibody, V domains shown)
VH: EVQLVESGGGLVQPGGSLRLSCTASGIDLSNYAVIWVRQAPGKGLEWVGIIYTYDTTYYANWAKGRFTISRDTSKNTVYLQMNSLRAEDTAVYFCARSFSDISDLIKLWGQGTLVTVSS
VL: EIVMTQSPSTLSASVGDRVIITCQASQSLYNNKHLAWYQQKPGKAPKLLIYEASKLASGVPSRFSGSGSGAEFTLTISSLQPDDFATYYCLGEFSCGSGDCLAFGQGTKLTVL
notes: IgG
B2: MYT11409 (antibody, V domains shown)
VH: B1 VH
VL: B1 VL with H34D, S98H
notes: IgG
B3: MYT11396 (antibody, V domains shown)
VH: B1 VH
VL: B1 VL with H34D, E52H
notes: IgG
B4: MYT11394 (antibody, V domains shown)
VH: B1 VH
VL: B1 VL with H34D, L35H
notes: IgG
B5: MYT11398 (antibody, V domains shown)
VH: B1 VH
VL: B1 VL with H34D, S54H
notes: IgG
B6: MYT11410 (antibody, V domains shown)
VH: B1 VH
VL: B1 VL with H34D, G99H
notes: IgG
B7: MYT11033 (antibody, V domains shown)
VH: EVQLVESGGGLVQPGGSLRLSCTASGLSLSSHWMSWVRQAPGKGLEWVGVISAGGNTYYANWAKGRFTISRDTSKNTVYLQMNSLRAEDTAVYFCARGDDGYTNAAYVSNLWGQGTLVTVSS
VL: EIVMTQSPSTLSASVGDRVIITCQASQSISSWLSWYQQKPGKAPKLLIYKASTLASGVPSRFSGSGSGAEFTLTISSLQPDDFATYYCQSYFDSTTIAFGQGTKLTVL
B8: MYT11079 (antibody, V domains shown)
VH: B7 VH with H32Y
VL: B7 VL with S31H
B9: MYT11063 (antibody, V domains shown)
VH: B7 VH with H32Y, A106H
VL: B7 VL
B10: MYT11081 (antibody, V domains shown)
VH: B7 VH with H32Y
VL: B7 VL with L33H
B11: MYT11100 (antibody, V domains shown)
VH: B7 VH with H32Y
VL: B7 VL with T106E, V107I, L108K
B12: MYT11078 (antibody, V domains shown)
VH: B7 VH with H32Y
VL: B7 VL with S30H
B13: MYT11059 (antibody, V domains shown)
VH: B7 VH with H32Y, Y102H
VL: B7 VL
B14: MYT11096 (antibody, V domains shown)
VH: B7 VH with H32Y
VL: B7 VL with T95H
B15: MYT11053 (antibody, V domains shown)
VH: B7 VH with H32Y, A96H
VL: B7 VL
B16: MYT11068 (antibody, V domains shown)
VH: B7 VH with H32Y, L111H
VL: B7 VL
B17: MYT11069 (antibody, V domains shown)
VH: B7 VH with H32Y, F94Y
VL: B7 VL
B18: MYT11084 (antibody, V domains shown)
VH: B7 VH with H32Y
VL: B7 VL with A51H
B19: MYT11056 (antibody, V domains shown)
VH: B7 VH with H32Y, D99H
VL: B7 VL
B20: MYT11058 (antibody, V domains shown)
VH: B7 VH with H32Y, G101H
VL: B7 VL
B21: MYT10899 (antibody, V domains shown)
VH: EVQLVESGGGLVQPGGSLRLSCTASGFSLSNYVMNWVRQAPGKGLEWVGIIDSHGSTYYASWAKGRFTISRDTSKNTVYLQMNSLRAEDTAVYFCARGLYLWGQGTLVTVSS
VL: EIVMTQSPSTLSASVGDRVIITCQSSQSVYNNNLLAWYQQKPGKAPKLLIYYTSNLASGVPSRFSGSGSGAEFTLTISSLQPDDFATYYCQGGYNGNIYAFGQGTKLTVL
B22: MYT10917 (antibody, V domains shown)
VH: B21 VH with H54S, F94Y
VL: B21 VL
B23: MYT10952 (antibody, V domains shown)
VH: EVQLVESGGGLVQPGGSLRLSCTASGHSLSSYAMGWVRQAPGKGLEWVGFINAGGNTYYANWAKGRFTISRDTSKNTVYLQMNSLRAEDTAVYFCARRYSRASGWYDLWGQGTLVTVSS
VL: EIVMTQSPSTLSASVGDRVIITCQASQSISSYLAWYQQKPGKAPKLLIYAASTLASGVPSRFSGSGSGAEFTLTISSLQPDDFATYYCQSYSYSSGIDYGDVFGQGTKLTVL
B24: MYT10955 (antibody, V domains shown)
VH: B23 VH with H27F, S30H
VL: B23 VL
B25: MYT11017 (antibody, V domains shown)
VH: B23 VH with H27F
VL: B23 VL with G96H
B26: MYT11005 (antibody, V domains shown)
VH: B23 VH with H27F
VL: B23 VL with S52H
B27: MYT10989 (antibody, V domains shown)
VH: B23 VH with H27F, L108H
VL: B23 VL

What was measured:
[1] = biological target: T1, Human PTK7/CCK4 Protein, His Tag, Acro …; assay: BLI, antibody on anti-human Fc sensor, 50 nM PTK7
[2] = biological target: T2, Human PTK7; assay: cell-based or functional assay

| binding result [1] | Internalization, FOW @ 25 nM (fold over the wildtype, parental antibody) [2] | Binder |
| --- | --- | --- |
| binds |  | B1 |
| binds |  | B2 |
| binds |  | B3 |
| binds |  | B4 |
| binds |  | B5 |
| binds |  | B6 |
|  | 1.19 fold over parental antibody | B7 |
|  | 1.2 fold over parental antibody | B8 |
|  | 2.04 fold over parental antibody | B9 |
|  | 1.22 fold over parental antibody | B10 |
|  | 1.17 fold over parental antibody | B11 |
|  | 1.24 fold over parental antibody | B12 |
|  | 1.27 fold over parental antibody | B13 |
|  | 1.43 fold over parental antibody | B14 |
|  | 1.25 fold over parental antibody | B15 |
|  | 1.22 fold over parental antibody | B16 |
|  | 1.22 fold over parental antibody | B17 |
|  | 1.14 fold over parental antibody | B18 |
|  | 1.1 fold over parental antibody | B19 |
|  | 1.26 fold over parental antibody | B20 |
|  | 1.14 fold over parental antibody | B21 |
|  | 1.29 fold over parental antibody | B22 |
|  | 1.06 fold over parental antibody | B23 |
|  | 1.05 fold over parental antibody | B24 |
|  | 1.2 fold over parental antibody | B25 |
|  | 1.05 fold over parental antibody | B26 |
|  | 1.09 fold over parental antibody | B27 |
